Laboratory results taken from the supplement of paper PMC10567573.

B1: TNNI2 (parent)
chain: DWRKNIEEKSGMEGRKKMFESES
B2: TRIM29 (parent)
chain: RKCPVHGKTMELFCQTDQTCICYL

Variants of: B1
Assay: protein stability index of a GFP-peptide fusion (GPS, HEK-293T) (PSI 1-6); higher = more stable
Settings: c terminus: native
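Note: lentivirally expressed fusions sorted by FACS into six bins by GFP to DsRed ratio, PSI derived from sequencing read proportions per bin multiplied by bin number.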

Protein stability index, by site and new letter:
S23: T 1.42, I 1.59, P 2.42, N 4.46, H 2.87, C 1.53, G 3.42, K 2.63, R 2.15, F 3.02, Y 2.59
E22: Q 4.33, P 2.06, V 3.77, N 4.44, R 1.58, S 5.13, Y 3.84, T 5.25, W 3.86

Variants of: B2
Assay: as above
Settings: c terminus: a fixed tail appended

Protein stability index: each site, then its substitutions
E11: R 2.14, A 1.83, S 2.85, F 1.76, M 1.7, P 2.95, Q 1.47, V 2.9, W 2.41, H 2.56, K 1.92, N 2.55, G 2.31, I 2.77, L 3.23, D 2.49, T 2.66, Y 1.8
K2: Q 2.12, M 2.17, T 1.7, S 2.27, I 1.94, N 2.68, R 1.69, P 3.02, Y 1.8, C 1.82, G 2.57, F 2.36, W 2.91, A 2.54, L 2.36, V 2.02, H 2.15, D 2.15, E 1.65
M10: G 1.65, C 1.94, D 2.44, P 2.35, V 1.98, Y 1.83, N 2.14, R 2.84, K 2.02, E 1.46, A 1.87, L 1.99, S 2.43, Q 1.87, W 1.46, H 2.43, T 1.49, F 2.58, I 3.45
T16: W 2.17, H 2.44, P 2.06, N 2.62, F 2.51, M 1.57, E 1.78, Q 2.91, Y 2.54, L 1.56, C 3.37, G 3.39, S 2.34, I 1.98, K 2.15, A 2.24, R 1.91, D 2.1, V 2.6
V5: K 2.3, L 1.92, D 3.62, C 3.08, W 2.52, Q 1.59, G 3.21, M 2.58, R 2.42, T 2.46, P 2.87, N 4.09, Y 2.71, S 3.1, I 2.79, E 1.79, A 1.72, H 3.76
P4: S 2.41, Y 2.12, I 2.52, D 2.63, C 4.04, V 2.21, F 3.42, E 3.3, L 3.39, R 3.52, N 3.09, T 2.25, A 2.54, W 2.91, Q 1.95, K 2.58
F13: L 2.04, M 3.16, A 1.78, C 2.23, K 2.99, Q 3.27, Y 2.32, N 2.72, V 2.58, E 2.47, H 2.5, P 2.4, S 2.5, R 1.96, G 2.93, T 2.38, I 2.89
C3: H 2.27, S 2.54, Y 1.9, A 3.58, V 1.86, G 2.1, L 2.3, Q 2.64, K 1.89, I 3.19, F 2.35, E 2.52, T 3.1, D 2.13, P 1.97, W 2.72, N 2.92, R 2.12
C14: I 2.41, M 1.46, F 3.17, E 2.77, K 1.89, L 2.27, Q 2.03, S 2.35, H 2.83, V 1.47, G 1.86, W 1.89, D 2.1, R 2.5, A 2.5, P 2, Y 2.59, T 3.06, N 2.33
L12: Y 2.86, C 2.81, F 1.61, K 1.46, W 1.08, G 1.68, P 2.08, N 1.99, T 1.58, A 2.21, I 2.47, E 1.53, D 2.81, V 2.87, S 2.65, M 2.98, R 1.99, H 2.66
Q15: N 2, A 2.75, R 1.78, I 1.88, P 2.66, C 3.22, Y 1.92, H 2.26, K 1.79, G 2.93, V 2.75, T 2.14, M 2.43, F 3.06, D 1.52, L 3.21, E 1.56, S 2.48
Q18: F 2.71, C 2.22, D 1.79, M 2.12, G 2.79, H 2.18, K 3.94, E 2.75, A 1.73, L 2.11
T9: P 1.98, Y 2.25, F 3.32, A 2.95, D 2.81, V 2.41, N 2.79, W 2.42, C 1.75, Q 1.77, S 3.03, L 2.56, H 1.78, M 2.77, R 1.21, I 1.49, K 2.46, E 2.06, G 2.72
R1: V 2.98, G 3.33, M 1.95, E 1.71, Q 1.91, I 1.65, L 3.04, Y 2.48, N 2.84, C 2.39, P 2.66, F 1.95, T 2.32, D 1.67, S 2.19, A 2.68, K 2.22, H 3, W 2.46
D17: T 1.76, R 2.8, F 1.49, A 2.19, P 2.04, I 1.79, Q 1.66, C 2.08, M 1.93, Y 2.92, S 1.49, L 3.97, E 3.12, N 1.7, K 1.52, G 2.73, H 1.89
H6: F 2.31, C 1.62, R 4.01, A 2.38, D 3.05, V 2.44, G 2.4, P 1.98, K 2.29, I 2.37, W 1.96, N 3.27, L 2.85
G7: H 2.38, W 1.4, E 2.6, N 3.49, I 3.48, V 2.04, Y 2.14, P 2.46, C 2.5, D 3.12, L 2.26, Q 3.09, T 2.46, K 1.63, F 2.55, M 2.35, S 2.57, A 2.25
K8: C 1.85, V 2.54, P 1.48, N 2.56, R 2.09, S 1.44, A 2.58, I 1.59, Q 2, Y 1.23, F 2.24, H 2.83, L 1.37, M 2.45, G 1.59, D 1.94, E 2.59, T 2.52, W 2.77
